According to doi:10.1101/568618 (bioRxiv, 2019):

B2: recombinant light-activated full-length CRY2 (natural protein)
chain: MKMDKKTIVWFRRDLRIEDNPALAAAAHEGSVFPVFIWCPEEEGQFYPGRASRWWMKQSLAHLSQSLKALGSDLTLIKTHNTISAILDCIRVTGATKVVFNHLYDPVSLVRDHTVKEKLVERGISVQSYNGDLLYEPWEIYCEKGKPFTSFNSYWKKCLDMSIESVMLPPPWRLMPITAAAEAIWACSIEELGLENEAEKPSNALLTRAWSPGWSNADKLLNEFIEKQLIDYAKNSKKVVGNSTSLLSPYLHFGEISVRHVFQCARMKQIIWARDKNSEGEESADLFLRGIGLREYSRYICFNFPFTHEQSLLSHLRFFPWDADVDKFKAWRQGRTGYPLVDAGMRELWATGWMHNRIRVIVSSFAVKFLLLPWKWGMKYFWDTLLDADLECDILGWQYISGSIPDGHELDRLDNPALQGAKYDPEGEYIRQWLPELARLPTEWIHHPWDAPLTVLKASGVELGTNYAKPIVDIDTARELLAKAISRTREAQIMIGAAPDEIVADSFEALGANTIKEPGLCPSVSSNDQQVPSAVRYNGSKRVKPEEEEERDMKKSRGFDERELFSTAESSSSSSVFFVSQSCSLASEGKNLEGIQDSSDQITTSLGKNGCK
B4: Arabidopsis COP1^349-675 WD40 domain (domain or fragment)
chain: TFTRYSRLRVIAEIRHGDIFHSANIVSSIEFDRDDELFATAGVSRCIKVFDFSSVVNEPADMQCPIVEMSTRSKLSCLSWNKHEKNHIASSDYEGIVTVWDVTTRQSLMEYEEHEKRAWSVDFSRTEPSMLVSGSDDCKVKVWCTRQEASVINIDMKANICCVKYNPGSSNYIAVGSADHHIHYYDLRNISQPLHVFSGHKKAVSYVKFLSNNELASASTDSTLRLWDVKDNLPVRTFRGHTNEKNFVGLTVNSEYLACGSETNEVYVYHKEITRPVTSHRFGSPDMDDAEEEAGSYFISAVCWKSDSPTMLTANSQGTIKVLVLAA
B5: COP1^(349-675, Lys422Ala) WD40 domain (domain or fragment)
chain: TFTRYSRLRVIAEIRHGDIFHSANIVSSIEFDRDDELFATAGVSRCIKVFDFSSVVNEPADMQCPIVEMSTRSALSCLSWNKHEKNHIASSDYEGIVTVWDVTTRQSLMEYEEHEKRAWSVDFSRTEPSMLVSGSDDCKVKVWCTRQEASVINIDMKANICCVKYNPGSSNYIAVGSADHHIHYYDLRNISQPLHVFSGHKKAVSYVKFLSNNELASASTDSTLRLWDVKDNLPVRTFRGHTNEKNFVGLTVNSEYLACGSETNEVYVYHKEITRPVTSHRFGSPDMDDAEEEAGSYFISAVCWKSDSPTMLTANSQGTIKVLVLAA

Assays:
[1] = target: UVR8^HY5C44 chimera (recombinant) (Arabidopsis | not stated); assay: SEC
[2] = target: B5; assay: ITC
[3] = target: B4; assay: crystal structure
[4] = target: B4; assay: grating-coupled interferometry
[5] = target: B2; assay: grating-coupled interferometry
[6] = target: T1, UVR8^12-381 (UVR8 β-propeller core) (Arabidopsis, UniProt Q9FN03 12-381); assay: grating-coupled interferometry
T1 sequence: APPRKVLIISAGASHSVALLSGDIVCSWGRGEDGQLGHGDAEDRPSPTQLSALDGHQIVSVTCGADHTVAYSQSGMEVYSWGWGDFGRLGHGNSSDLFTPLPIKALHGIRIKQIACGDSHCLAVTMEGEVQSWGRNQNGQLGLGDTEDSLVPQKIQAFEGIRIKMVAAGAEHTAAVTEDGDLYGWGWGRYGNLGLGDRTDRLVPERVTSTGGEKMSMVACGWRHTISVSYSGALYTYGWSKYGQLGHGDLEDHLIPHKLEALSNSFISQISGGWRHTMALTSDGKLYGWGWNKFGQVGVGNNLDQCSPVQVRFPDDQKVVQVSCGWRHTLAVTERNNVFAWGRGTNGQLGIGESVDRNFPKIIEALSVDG

full-length UVR8 = target: T2, full-length UVR8 (Arabidopsis, UniProt Q9FN03 1-440); assay: grating-coupled interferometry
T2 sequence: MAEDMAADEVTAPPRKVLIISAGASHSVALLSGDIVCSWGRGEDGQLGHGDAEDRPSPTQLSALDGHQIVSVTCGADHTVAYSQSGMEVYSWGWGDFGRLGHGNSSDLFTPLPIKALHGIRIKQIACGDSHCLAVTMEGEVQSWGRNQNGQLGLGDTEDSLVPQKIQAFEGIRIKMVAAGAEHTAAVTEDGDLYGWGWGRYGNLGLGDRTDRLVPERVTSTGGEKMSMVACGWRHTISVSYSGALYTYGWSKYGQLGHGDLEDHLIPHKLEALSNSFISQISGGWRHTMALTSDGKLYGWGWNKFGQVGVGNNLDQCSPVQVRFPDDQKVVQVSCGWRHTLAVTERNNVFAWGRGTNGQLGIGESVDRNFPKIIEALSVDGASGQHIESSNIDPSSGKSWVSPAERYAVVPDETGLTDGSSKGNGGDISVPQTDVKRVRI

[7] = target: B4; assay: ITC
[8] = target: B5; assay: crystal structure

Molecule UVR8^HY5C44 chimera (recombinant) has a stoichiometry N [1] of 2.

B1: COL3^287-294 VP-peptide (peptide)
peptide: GFGVVPSF
B1: binds [2]; binds [3].

With B2 the “fold increase in affinity over the isolated CRY2 VP-peptide” value [4] was ~200 fold.

B3: HFR1^57-64 VP-peptide (peptide)
peptide: YLQIVPEI
B3: binds [3].

For B4, the binding result [5] was “binds”, the Kd [6] was ~500 nM and the Kd (full-length UVR8) was ~1000 nM.

B5: binds (full-length UVR8).

B6: UVR8^406-413 VP-peptide (peptide)
peptide: RYAVVPDE
With B6 the “fold increase in affinity over wild-type COP1” value [2] was ~10 fold and the binding result [7] was “binds”.

B7: HYH^27-34 VP-peptide (peptide)
peptide: ELLMVPDM
B7: binds [3].

B8: CRY2^NC80 (CRY2^486-565) (domain or fragment)
chain: SRTREAQIMIGAAPDEIVADSFEALGANTIKEPGLCPSVSSNDQQVPSAVRYNGSKRVKPEEEEERDMKKSRGFDERELF
B8: binds [4].

B9: CRY2^527-535 VP-peptide (peptide)
peptide: NDQQVPSAV
For B9, the “fold reduced binding against wild-type COP1” value [2] was ~30 fold and the binding result [7] was “binds”.

B10: CRY1^544-552 VP-peptide (peptide)
peptide: EDQMVPSIT
B10: binds [2]; binds [3].

B11: CO^366-373 VP-peptide (peptide)
peptide: GYGIVPSF
B11 was tested, and the “fold stronger binding than to wild-type COP1” value [2] was ~4 fold and the binding result [7] was “binds”.

B12: STO^240-247 VP-peptide (peptide)
peptide: EHFIVPDL
B12: binds [3].

B13: HY5^39-48 VP-peptide (peptide)
peptide: EIRRVPEFGG
B13 was tested, and the Kd [7] was ~20000 nM, the “fold stronger binding than UVR8^406-413” value [7] was ~8 fold and the binding result [8] was “binds”.

B14: full-length HY5 protein (natural protein)
chain: MQEQATSSLAASSLPSSSERSSSSAPHLEIKEGIESDEEIRRVPEFGGEAVGKETSGRESGSATGQERTQATVGESQRKRGRTPAEKENKRLKRLLRNRVSAQQARERKKAYLSELENRVKDLENKNSELEERLSTLQNENQMLRHILKNTTGNKRGGGGGSNADASL
In the case of B14, the Kd [4] is reported as ~1000 nM.
